# According to PMC12489471, “A multi-dentate, cooperative interaction between endo- and exo-ribonucleases within the bacterial RNA degradosome” (Nucleic Acids Research, 2025):
# Where two headings read alike, the source gives them in different places. Where no end group is shown, it is not given here.
# B1: E. coli PNPase (enzyme, UniProt P05055 1-711, looked up)
# chain: MLNPIVRKFQYGQHTVTLETGMMARQATAAVMVSMDDTAVFVTVVGQKKAKPGQDFFPLTVNYQERTYAAGRIPGSFFRREGRPSEGETLIARLIDRPIRPLFPEGFVNEVQVIATVVSVNPQVNPDIVAMIGASAALSLSGIPFNGPIGAARVGYINDQYVLNPTQDELKESKLDLVVAGTEAAVLMVESEAQLLSEDQMLGAVVFGHEQQQVVIQNINELVKEAGKPRWDWQPEPVNEALNARVAALAEARLSDAYRITDKQERYAQVDVIKSETIATLLAEDETLDENELGEILHAIEKNVVRSRVLAGEPRIDGREKDMIRGLDVRTGVLPRTHGSALFTRGETQALVTATLGTARDAQVLDELMGERTDTFLFHYNFPPYSVGETGMVGSPKRREIGHGRLAKRGVLAVMPDMDKFPYTVRVVSEITESNGSSSMASVCGASLALMDAGVPIKAAVAGIAMGLVKEGDNYVVLSDILGDEDHLGDMDFKVAGSRDGISALQMDIKIEGITKEIMQVALNQAKGARLHILGVMEQAINAPRGDISEFAPRIHTIKINPDKIKDVIGKGGSVIRALTEETGTTIEIEDDGTVKIAATDGEKAKHAIRRIEEITAEIEVGRVYTGKVTRIVDFGAFVAIGGGKEGLVHISQIADKRVEKVTDYLQMGQEVPVKVLEVDRQGRIRLSIKEATEQSQPAAAPEAPAAEQGE
# notes: polynucleotide phosphorylase (PNPase), E. coli; also called polynucleotide phosphorylase; full-length PNPase; source: E. coli BL21(DE3), purified (ammonium sulfate, Q, butyl-Sepharose, SEC)
# How the values were obtained:
# [1] = molecular target: T1, PNPase (Escherichia coli, UniProt P05055); format: binding, E. coli; conditions: SPR, 25°C, immobilized PNPase C-His, HEPES pH 7.2, contact 60 s
# T1 construct: made in house; host or cells: E. coli Evo21(DE3)
# Description: Briefly, at the N-terminal of the construct, there is an Hisx6 affinity tag that will be used for affinity purification. Following the Hisx6 tag there is an maltose-binding protein (MBP) tag with a TEV cleavage site to maintain solubility of the peptides. Following the MBP tag the gene encoding the peptide is inserted, and is then followed by intein, a self-cleavable tag, followed by a choline-binding domain, which can be used for an extra step of affinity purification. […] After expression, cells were harvested, resuspended in Lysis Buffer 2 (20 mM Tris–HCl, pH 8.0, 80 mM KCl, 300 mM NaCl, 20 mM Imidazole, 0.5 mM TCEP), and lysed with a cell disruptor (Emulsiflex, Avestin). […] After subsequent rounds of washing with Ni Equilibration Buffer supplemented with, respectively, 0.1% Triton-X, 1 M NaCl, and a final wash in Ni Equilibration Buffer, samples were eluted with Ni Elution Buffer (20 mM Tris–HCl, pH 8.0, 300 mM NaCl, 300 mM imidazole, 0.5 mM TCEP). Enriched fractions were then supplemented with 100 mM β-mercaptoethanol to catalyse intein self-cleavage overnight at room temperature. Treated samples were filtered and loaded on an amylose gravity flow column, equilibrated with Amy Equilibration Buffer (20 mM Tris–HCl, pH 8.0, 20 mM NaCl, 20 mM imidazole, 2 mM β-mercaptoethanol) and after washing, His-tagged TEV protease was applied to the resin and incubated at 4°C for 2 h.
# PNPase carrying a C-terminal Hisx6 tag was expressed from pExp-cis-Ec_PNP-CHis vector in E. coli Evo21(DE3) cells, induced with 0.4 mM IPTG, at 18°C overnight. After expression, cells were harvested and resuspended in Lysis Buffer 2 (20 mM Tris–HCl, pH 8.0, 80 mM KCl, 300 mM NaCl, 20 mM imidazole, 0.5 mM TCEP), and lysed with a cell disruptor (Emulsiflex, Avestin). […] After subsequent rounds of washing with equilibration buffer supplemented with 0.1% Triton-X, or 1 M NaCl, the sample was eluted with Ni PNPCHis Elution Buffer (20 mM NaH2PO4, pH 8.0, 300 mM NaCl, 300 mM KCl, 5 mM MgCl2, 300 mM imidazole, pH 7.5, 10 mM β-mercaptoethanol). […] Fractions containing PNPase were run through a HiPrep™ 26/10 Desalting Column (GE Healthcare) and buffer exchanged to Q PNPCHis A (20 mM NaH2PO4, pH 8.0, 30 mM NaCl, 10% glycerol, 0.5 mM TCEP).
# Interaction measurements were made using a Biacore T200 instrument (GE) at 25°C. PNPase with a 6xHisTag at the CTD was immobilized on a Series S Sensor Chip NTA (Cytiva) to provide a signal of 5 response units (RU). […] For the SPR analysis of the point mutants, binding to PNPase was measured at four different concentrations (0, 12.5, 25, and 50 nM). All concentrations were run in duplicates. The contact time was 60 s, while the dissociation time was 120 s, at a […] flow rate. […] The chip surface was regenerated with 350 mM EDTA in water, following manufacturer's instructions. Data were processed using the manufacturer’s BIAevaluation software.
# [2] = molecular target: B1; test: SEC-MALS; Superdex 200 10/300 Increase, 100 µl at ~1 mg/ml, 25°C; buffer A (50 mM Tris pH 7.5, 100 mM NaCl, 100 mM KCl, 0.01% w/v b-DDM, 1 mM TCEP) or B (A without b-DDM) as Table S2 tells for each sample; the 1:1 ratio is one RNase E segment to one PNPase trimer (expected mass = trimer plus one segment); conditions: both partners purified
# [3] = SEC-MALLS molar mass of PNPase and PNPase/RNase E complexes; format: physicochemical
# Method: Estimation of molar masses of PNPase and the various PNPase/RNase E complexes was carried out by size-exclusion chromatography with multi-angle laser light scattering (SEC-MALLS). Proteins (100 μl at ∼1 mg/ml concentration) were loaded onto a Superdex 200 10/300 Increase GL SEC column (GE Healthcare) at 0.5 ml/min using an AKTA Purifier FPLC system ([…]). Chromatograms were acquired using UNICORN software (GE Healthcare) at 280 nm. The eluent from the S200 column was analysed with an online DAWN HELEOS II MALLS instrument with eight detectors (Wyatt Technology), followed by an Optilab T-rEX differential refractometer (Wyatt Technology) at 25°C. Data collection and analysis were performed using ASTRA 6 software (Wyatt Technology). Eluted peaks from SEC column were evaluated by Zimm Plot, using a dn/dc value of 0.1850 ml/g. Bovine serum albumin was used as a standard to confirm the system performance (Supplementary Table S1).
# [4] = molecular target: the molecule itself; test: SEC-MALS; Superdex 200 10/300 Increase, 100 µl at ~1 mg/ml, 25°C; buffer A (50 mM Tris pH 7.5, 100 mM NaCl, 100 mM KCl, 0.01% w/v b-DDM, 1 mM TCEP) or B (A without b-DDM) as Table S2 tells for each sample; the 1:1 ratio is one RNase E segment to one PNPase trimer (expected mass = trimer plus one segment)
# [5] = Superdex 200, 25°C, buffer B: A w/o bDDM
molecule,measurement,setting,value
GAAGGHTATHHASAAPARPQPVE [RNase E 1039-1061],KD range in words,[1]; listed as RNase E peptide 1039–1061,micromolar range
same,KD range in words,[1]; listed as residues 1039–1061,low μM range
"RNase E 583-1061, avi-tagged (domain or fragment, E. coli, UniProt P21513 583-1061, looked up, The construct is described nowhere in the methods) SGGEETKPTEQPAPKAEAKPERQQDRRKPRQNNRRDRNERRDTRSERTEGSDNREENRRNRRQAQQQTAETRESRQQAEVTEKARTADEQQAPRRERSRRRNDDKRQAQQEAKALNVEEQSVQETEQEERVRPVQPRRKQRQLNQKVRYEQSVAEEAVVAPVVEETVAAEPIVQEAPAPRTELVKVPLPVVAQTAPEQQEENNADNRDNGGMPRRSRRSPRHLRVSGQRRRRYRDERYPTQSPMPLTVACASPELASGKVWIRYPIVRPQDVQVEEQREQEEVHVQPMVTEVPVAAAIEPVVSAPVVEEVAGVVEAPVQVAEPQPEVVETTHPEVIAAAVTEQPQVITESDVAVAQEVAEQAEPVVEPQEETADIEEVVETAEVVVAEPEVVAQPAAPVVAEVAAEVETVAAVEPEVTVEHNHATAPMTRAPAPEYVPEAPRHSDWQRPTFAFEGKGAAGGHTATHHASAAPARPQPVE",stoichiometry N,[2],1
"RNase E 511-1061 (domain or fragment, E. coli, UniProt P21513 511-1061, looked up, The construct is described nowhere in the methods) ALPSEEEFAERKRPEQPALATFAMPDVPPAPTPAEPAAPVVAPAPKAAPATPAAPAQPGLLSRFFGALKALFSGGEETKPTEQPAPKAEAKPERQQDRRKPRQNNRRDRNERRDTRSERTEGSDNREENRRNRRQAQQQTAETRESRQQAEVTEKARTADEQQAPRRERSRRRNDDKRQAQQEAKALNVEEQSVQETEQEERVRPVQPRRKQRQLNQKVRYEQSVAEEAVVAPVVEETVAAEPIVQEAPAPRTELVKVPLPVVAQTAPEQQEENNADNRDNGGMPRRSRRSPRHLRVSGQRRRRYRDERYPTQSPMPLTVACASPELASGKVWIRYPIVRPQDVQVEEQREQEEVHVQPMVTEVPVAAAIEPVVSAPVVEEVAGVVEAPVQVAEPQPEVVETTHPEVIAAAVTEQPQVITESDVAVAQEVAEQAEPVVEPQEETADIEEVVETAEVVVAEPEVVAQPAAPVVAEVAAEVETVAAVEPEVTVEHNHATAPMTRAPAPEYVPEAPRHSDWQRPTFAFEGKGAAGGHTATHHASAAPARPQPVE",stoichiometry N,[2],1
same,Mn number-averaged solute molar mass,[3]; [5],"63,870 Da"
same,Mw weight-averaged solute molar mass,[3]; [5],"64,020 Da"
same,Difference Mn from expected mass,"[3]; buffer B, expected: trimer:RNase E 1:1 ratio for complexes",4.4%
"RNase E 960-1061 (in the SEC-MALLS sample with PNPase) (domain or fragment, E. coli, UniProt P21513 960-1061, looked up, The expected mass of the complex fits one untagged segment of 10,585 Da on a PNPase trimer) VVETAEVVVAEPEVVAQPAAPVVAEVAAEVETVAAVEPEVTVEHNHATAPMTRAPAPEYVPEAPRHSDWQRPTFAFEGKGAAGGHTATHHASAAPARPQPVE",stoichiometry N,[2],1
B1,stoichiometry N,[4],3
"E. coli PNPase core, lacking S1 and KH domains (domain or fragment, UniProt P05055 1-552, looked up, polynucleotide phosphorylase (PNPase), E. coli, core aa 1-552 by the methods (1-550 in the results), without the KH and S1 domains; The results and a legend give 1-550 for the core, the methods 1-552; source: E. coli Evo21(DE3), purified (Ni-NTA, intein cleavage, butyl, Q, SEC); not shown: Mycobacterium xenopi GyrA intein, C-terminal, cleaved; His8, C-terminal, cleaved) MLNPIVRKFQYGQHTVTLETGMMARQATAAVMVSMDDTAVFVTVVGQKKAKPGQDFFPLTVNYQERTYAAGRIPGSFFRREGRPSEGETLIARLIDRPIRPLFPEGFVNEVQVIATVVSVNPQVNPDIVAMIGASAALSLSGIPFNGPIGAARVGYINDQYVLNPTQDELKESKLDLVVAGTEAAVLMVESEAQLLSEDQMLGAVVFGHEQQQVVIQNINELVKEAGKPRWDWQPEPVNEALNARVAALAEARLSDAYRITDKQERYAQVDVIKSETIATLLAEDETLDENELGEILHAIEKNVVRSRVLAGEPRIDGREKDMIRGLDVRTGVLPRTHGSALFTRGETQALVTATLGTARDAQVLDELMGERTDTFLFHYNFPPYSVGETGMVGSPKRREIGHGRLAKRGVLAVMPDMDKFPYTVRVVSEITESNGSSSMASVCGASLALMDAGVPIKAAVAGIAMGLVKEGDNYVVLSDILGDEDHLGDMDFKVAGSRDGISALQMDIKIEGITKEIMQVALNQAKGARLHILGVMEQAINAPRGDISEFA",stoichiometry N,[4],3
